Numbered stars: 1 amine (or outer) side, 2 acyl side, 3 side chain; on linkers, the order of the positions; unused ones are H or OH. Square brackets hold non-standard residues; d marks the D form. Primed or numbered codes have the meaning given here. HomPqa = 3-hydroxy-2-(4-oxo-6-piperazin-1-yl-4H-quinazolin-3-yl)-propionic acid, O=C(C(CO[*:3])n1cnc2ccc(N3CCN([*:1])CC3)cc2c1=O)[*:2]; Pdp = (6-oxo-2-piperazin-1-yl-1,6-dihydropurin-7-yl)-acetic acid, O=C(Cn1cnc2nc(N3CCN([*:1])CC3)[nH]c(=O)c21)[*:2]; Dqa = (6-[1,4]diazepan-1-yl-4-oxo-4H-quinazolin-3-yl)-acetic acid, O=C(Cn1cnc2ccc(N3CCCN([*:1])CC3)cc2c1=O)[*:2]; Pipa = (1-oxo-7-piperazin-1-yl-1H-isoquinolin-2-yl)-acetic acid, O=C(Cn1ccc2ccc(N3CCN([*:1])CC3)cc2c1=O)[*:2]; Appa = (6-Amino-2-piperazin-1-yl-9H-purin-8-yl)-acetic acid, Nc1nc(N2CCN([*:1])CC2)nc2[nH]c(CC(=O)[*:2])nc12; Cip = (5-Piperazin-1-yl-indole-1-yl)-acetic acid, O=C(Cn1ccc2cc(N3CCN([*:1])CC3)ccc21)[*:2]; Cba′ = (4-Aminomethyl-biphenyl-3-yl)-acetic acid, O=C(Cc1cc(-c2ccccc2)ccc1CN[*:1])[*:2]; Bqa = ((1R,4S)-6-2-Aza-bicyclo[2.2.1]hept-5-yl-4-oxo-4H-quinazolin)-acetic acid; Ppa = (2-piperazin-1-yl-purin-7-yl)-acetic acid; NMeR = CN[C@@H](CCCNC(=N)N)C(=O)O
T1: Y5R
T1 sequence (Q15761 whole entry, species assumed, looked up): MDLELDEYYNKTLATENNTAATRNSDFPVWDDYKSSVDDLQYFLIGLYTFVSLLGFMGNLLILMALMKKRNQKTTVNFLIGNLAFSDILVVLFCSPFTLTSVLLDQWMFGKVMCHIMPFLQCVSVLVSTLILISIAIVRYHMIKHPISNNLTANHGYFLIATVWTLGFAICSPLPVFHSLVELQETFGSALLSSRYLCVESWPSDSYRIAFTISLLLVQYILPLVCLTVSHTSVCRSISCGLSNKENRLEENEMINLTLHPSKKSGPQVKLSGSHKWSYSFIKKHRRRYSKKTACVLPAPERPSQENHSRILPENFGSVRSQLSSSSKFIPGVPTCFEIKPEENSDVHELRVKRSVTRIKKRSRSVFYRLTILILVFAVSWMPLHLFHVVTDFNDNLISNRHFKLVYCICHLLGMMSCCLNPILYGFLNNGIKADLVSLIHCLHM

T2: human NPY2 receptor (human, UniProt P49146 1-381)
T2 sequence (looked up): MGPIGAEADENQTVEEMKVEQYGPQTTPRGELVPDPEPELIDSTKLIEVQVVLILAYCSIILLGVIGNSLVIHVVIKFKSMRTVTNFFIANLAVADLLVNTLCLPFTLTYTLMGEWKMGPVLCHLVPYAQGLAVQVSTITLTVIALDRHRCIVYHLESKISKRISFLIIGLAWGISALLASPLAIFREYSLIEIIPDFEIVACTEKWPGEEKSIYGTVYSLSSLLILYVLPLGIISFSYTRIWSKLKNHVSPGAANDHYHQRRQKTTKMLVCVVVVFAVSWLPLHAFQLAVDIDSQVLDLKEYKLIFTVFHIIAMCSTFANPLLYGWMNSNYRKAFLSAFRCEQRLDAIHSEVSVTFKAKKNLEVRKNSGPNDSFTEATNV

B1: Ac-Ile-Lys-Ppa-Arg-His-Tyr-Leu-Asn-Trp-Val-Thr-Arg-Gln-(NMe)Arg-Tyr-NH2 (peptide)
peptide: Ac-IK[Ppa]RHYLNWVTRQ[NMeR]Y-NH2
B2: Ac-Ile-Lys-Appa-Arg-His-Tyr-Leu-Asn-Trp-Val-Thr-Arg-Gln-(NMe)Arg-Tyr-NH2 (peptide)
peptide: Ac-IK[Appa]RHYLNWVTRQ[NMeR]Y-NH2
B3: Ac-Ile-Lys-Bqa-Arg-His-Tyr-Leu-Asn-Trp-Val-Thr-Arg-Gln-(NMe)Arg-Tyr-NH2 (peptide)
peptide: Ac-IK[Bqa]RHYLNWVTRQ[NMeR]Y-NH2
B4: Ac-Ile-Lys-HomPqa-Arg-His-Tyr-Leu-Asn-Trp-Val-Thr-Arg-Gln-(NMe)Arg-Tyr-NH2 (peptide)
peptide: Ac-IK[HomPqa]RHYLNWVTRQ[NMeR]Y-NH2
B5: Ac-Ile-Lys-Dqa-Arg-His-Tyr-Leu-Asn-Trp-Val-Thr-Arg-Gln-(NMe)Arg-Tyr-NH2 (peptide)
peptide: Ac-IK[Dqa]RHYLNWVTRQ[NMeR]Y-NH2
B6: Ac-Ile-Lys-Pipa-Arg-His-Tyr-Leu-Asn-Trp-Val-Thr-Arg-Gln-(NMe)Arg-Tyr-NH2 (peptide)
peptide: Ac-IK[Pipa]RHYLNWVTRQ[NMeR]Y-NH2
SMILES: CC[C@H](C)[C@H](NC(C)=O)C(=O)N[C@@H](CCCCN)C(=O)N1CCN(c2ccc3ccn(CC(=O)N[C@@H](CCCNC(=N)N)C(=O)N[C@@H](Cc4c[nH]cn4)C(=O)N[C@@H](Cc4ccc(O)cc4)C(=O)N[C@@H](CC(C)C)C(=O)N[C@@H](CC(N)=O)C(=O)N[C@@H](Cc4c[nH]c5ccccc45)C(=O)N[C@H](C(=O)N[C@H](C(=O)N[C@@H](CCCNC(=N)N)C(=O)N[C@@H](CCC(N)=O)C(=O)N(C)[C@@H](CCCNC(=N)N)C(=O)N[C@@H](Cc4ccc(O)cc4)C(N)=O)[C@@H](C)O)C(C)C)c(=O)c3c2)CC1
B7: Ac-Ile-Lys-Pdp-Arg-His-Tyr-Leu-Asn-Trp-Val-Thr-Arg-Gln-(NMe)Arg-Tyr-NH2 (peptide)
peptide: Ac-IK[Pdp]RHYLNWVTRQ[NMeR]Y-NH2
SMILES: CC[C@H](C)[C@H](NC(C)=O)C(=O)N[C@@H](CCCCN)C(=O)N1CCN(c2nc3ncn(CC(=O)N[C@@H](CCCNC(=N)N)C(=O)N[C@@H](Cc4c[nH]cn4)C(=O)N[C@@H](Cc4ccc(O)cc4)C(=O)N[C@@H](CC(C)C)C(=O)N[C@@H](CC(N)=O)C(=O)N[C@@H](Cc4c[nH]c5ccccc45)C(=O)N[C@H](C(=O)N[C@H](C(=O)N[C@@H](CCCNC(=N)N)C(=O)N[C@@H](CCC(N)=O)C(=O)N(C)[C@@H](CCCNC(=N)N)C(=O)N[C@@H](Cc4ccc(O)cc4)C(N)=O)[C@@H](C)O)C(C)C)c3c(=O)[nH]2)CC1
B8: Ac-Ile-Lys-Cba-Arg-His-Tyr-Leu-Asn-Trp-Val-Thr-Arg-Gln-(NMe)Arg-Tyr-NH2 (peptide)
peptide: Ac-IK[Cba′]RHYLNWVTRQ[NMeR]Y-NH2
B9: Ac-Ile-Lys-Cip-Arg-His-Tyr-Leu-Asn-Trp-Val-Thr-Arg-Gln-(NMe)Arg-Tyr-NH2 (peptide)
peptide: Ac-IK[Cip]RHYLNWVTRQ[NMeR]Y-NH2
SMILES: CC[C@H](C)[C@H](NC(C)=O)C(=O)N[C@@H](CCCCN)C(=O)N1CCN(c2ccc3c(ccn3CC(=O)N[C@@H](CCCNC(=N)N)C(=O)N[C@@H](Cc3c[nH]cn3)C(=O)N[C@@H](Cc3ccc(O)cc3)C(=O)N[C@@H](CC(C)C)C(=O)N[C@@H](CC(N)=O)C(=O)N[C@@H](Cc3c[nH]c4ccccc34)C(=O)N[C@H](C(=O)N[C@H](C(=O)N[C@@H](CCCNC(=N)N)C(=O)N[C@@H](CCC(N)=O)C(=O)N(C)[C@@H](CCCNC(=N)N)C(=O)N[C@@H](Cc3ccc(O)cc3)C(N)=O)[C@@H](C)O)C(C)C)c2)CC1

Target: T1, Y5R
Test: cell-based or functional assay

Binder	Y5R EC50 (nM) FLIPR [nM]
B1	1100
B2	3300
B3	2870
B4	4940
B5	6030
B6	2340
B7	> 9000
B8	> 30000
B9	10700

Target: Y1R
Test: cell-based or functional assay

Y1R, sequence (P25929 whole entry): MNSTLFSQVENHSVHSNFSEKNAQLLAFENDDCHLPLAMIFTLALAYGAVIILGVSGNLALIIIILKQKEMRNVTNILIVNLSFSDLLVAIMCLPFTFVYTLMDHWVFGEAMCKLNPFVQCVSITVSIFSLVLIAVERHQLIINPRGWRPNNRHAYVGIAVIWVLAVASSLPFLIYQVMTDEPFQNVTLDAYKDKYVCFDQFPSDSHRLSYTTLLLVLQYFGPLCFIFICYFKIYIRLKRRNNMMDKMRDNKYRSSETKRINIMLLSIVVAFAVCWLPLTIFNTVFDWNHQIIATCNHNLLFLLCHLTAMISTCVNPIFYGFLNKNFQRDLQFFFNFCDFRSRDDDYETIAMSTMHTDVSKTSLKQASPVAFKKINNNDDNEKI

Binder	Y1R EC50 (nM) FLIPR [nM]
B1	> 5000
B2	> 5000
B3	> 5000
B4	> 9000
B5	> 9000
B6	> 5000
B7	> 9000
B8	> 30000
B9	> 30000

Target: Y4R
Test: cell-based or functional assay

Binder	Y4R EC50 (nM) FLIPR [nM]
B1	> 5000
B2	> 5000
B3	> 5000
B4	2790
B5	> 9000
B6	> 5000
B7	> 9000
B8	> 30000
B9	> 30000

Target: T2, human NPY2 receptor
Test: cell-based or functional assay

Binder	Y2R EC50 (nM) FLIRR (Ca flux, FLIPR) [nM]	Y2R EC50 (nM) cAMP [nM]
B1	0.45	0.12
B2	0.156	0.18
B3	0.072	0.17
B4	0.6	4.35
B5	0.25	0.35
B6	0.045	0.18
B7	0.037	0.24
B8	0.51	1.97
B9	0.14	0.36

Source: patent US8299023 (Hoffmann-La Roche, dated 2012)
